Experimental findings from US20220380801A1, “TRIPARTITE SYSTEMS FOR PROTEIN DIMERIZATION AND METHODS OF USE” (priority 2019, published 2022) are described below.

For the test, the system named is luciferase gene expression in HEK293 cells. Briefly: AAV transduction, inducible luciferase transgene in trans. It is filed as cell-based, human. The conditions noted are these: two separate AAV8 preparations, simeprevir. The source says:
AAV expression vectors were generated by subcloning specific promoter and transgene elements into an intermediate vector derived from pAAV-CMV (Takara) in which the CMV promoter downstream of the 5′ITR was removed and a WPRE element and SV40 polyA sequence were inserted upstream of the 3′ ITR.
To generate AAV encoding an inducible luciferase transgene, the ZHFD1-luciferase cassette was amplified by PCR from pZFHD1-Luciferase provided in the iDimerize regulated transcription system (Takara) and subcloned into the intermediate AAV vector. […]
Recombinant AAV (rAAV) was produced by triple-transfection of 40 T-175 cm^2 flasks containing HEK293 T-17 cells at 80% confluency using a standard helper-free approach. […] Fractions were taken from the ultraclear centrifuge tubes by piercing the tube with a 19 gauge syringe in the 60% layer below the clear band representing the virus and the purity of each fraction was assessed by SDS-PAGE of each fraction and subsequent Sypro Ruby analysis. […]
All rAAV transduction assays were performed in adherent HEK293 cells cultured in 96-well plates. Cells enzymatically dissociated from a tissue culture flask were counted and plated at 2.5×10^4 cells/well in a 96-well plate. […] For luminescence assays, SteadyGlo luciferase substrate (Promega) was added and luminescence was quantified with an Envision plate reader. […]

B1: PRSIM_23: Tn3 protein specific for HCV NS3/4A PR (S139A):simeprevir complex, SEQ ID NO: 5 (protein)
chain: RLDAPSQIEVKDVTDTTALITWVDPRYDDIWWFELTYGIKDVPGDRTTIKLYLNDPYYSIGNLKPDTEYEVSLISYTGDSYSRSGSNPAKITFKTGL
modifications: PRSIM_23
Regarding B1, the “induction of luciferase activity” value was determined as 228 fold.
